The text below walks through data of PMC5377818 (The Journal of Biological Chemistry, 2017).

For assay [1], the target named is FLAG-tagged influenza A virus M2 protein (influenza A virus (strain not stated)) (UniProt P05780). Briefly: co-IP.
Another assay addresses c-Myc-tagged cyclin D1 (UniProt P24385 1-295). Kind of assay: co-IP. As to conditions: partners not purified.

c-Myc-tagged cyclin D1, sequence (P24385 whole entry): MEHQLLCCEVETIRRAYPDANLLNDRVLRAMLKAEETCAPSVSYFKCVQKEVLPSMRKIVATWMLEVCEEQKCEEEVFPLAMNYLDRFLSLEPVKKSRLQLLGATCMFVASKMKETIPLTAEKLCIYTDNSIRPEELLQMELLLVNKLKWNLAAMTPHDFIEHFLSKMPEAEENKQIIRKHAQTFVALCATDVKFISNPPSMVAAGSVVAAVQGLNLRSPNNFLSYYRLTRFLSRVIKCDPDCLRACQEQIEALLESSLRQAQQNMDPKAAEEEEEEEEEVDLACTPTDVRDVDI

“FLAG- and c-Myc-tagged human cyclin D3 (from UniProt P30281-1 1-292) (natural protein)” displayed a percent reduction of M1 co-precipitated with M2 in assay [1] of 70%.

B1: Influenza A/WSN/33 virus M2 protein made in infected cells (natural protein)
chain: MSLLTEVETPIRNEWGCRCNDSSDPLVIAANIIGILHLILWILDRLFFKCIYRRFKYGLKRGPSTEGVPESMREEYRKEQQNAVDVDDGHFVNIELE
In the case of B1, in the assay with c-Myc-tagged cyclin D1, the “M2 co-precipitated, relative to cyclin D3” value is about 50%.
